Laboratory results published in patent US20060253917A1 (published 2006).

T1: Os005792-3529 aa 1-55 (Oryza sativa)
T1 construct: bait, Gal4 DBD fusion; also called PN20080; Hypothetical Protein 005792-3529 Similar to O. sativa Receptor Kinase
T1 chain: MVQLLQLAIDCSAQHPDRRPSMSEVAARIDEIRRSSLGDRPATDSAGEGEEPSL

T2: OsPN23053 aa 1-180 (Oryza sativa, UniProt Q8W0H5 141-320)
T2 construct: prey, AD fusion; also called Novel Protein 23053, Fragment, Similar to Arabidopsis Putative Na+-Dependent Inorganic Phosphate Cotransporter
T2 sequence: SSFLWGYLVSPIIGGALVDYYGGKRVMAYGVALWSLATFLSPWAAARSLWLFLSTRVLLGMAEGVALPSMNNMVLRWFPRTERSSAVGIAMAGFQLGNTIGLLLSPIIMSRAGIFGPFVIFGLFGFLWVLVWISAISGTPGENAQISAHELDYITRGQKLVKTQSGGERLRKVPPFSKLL

T3: OsEXPB2 aa 80-218 (Oryza sativa, UniProt O24230 80-218)
T3 construct: prey, AD fusion; also called PN19902
T3 sequence: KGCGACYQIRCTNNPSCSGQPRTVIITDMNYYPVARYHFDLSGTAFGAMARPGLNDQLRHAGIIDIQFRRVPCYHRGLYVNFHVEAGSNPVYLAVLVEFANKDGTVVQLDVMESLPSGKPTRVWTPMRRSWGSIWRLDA

T4: OsMADS15 aa 100-235 (Oryza sativa, UniProt Q6Q9I2 100-235)
T4 construct: bait, Gal4 DBD fusion; also called PN20842
T4 chain: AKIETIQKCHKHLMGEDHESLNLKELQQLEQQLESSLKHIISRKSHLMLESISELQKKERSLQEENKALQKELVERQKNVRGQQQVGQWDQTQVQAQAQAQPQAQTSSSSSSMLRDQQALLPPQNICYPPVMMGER

T5: OsHOS59 aa 1-206 (Oryza sativa, UniProt Q94LW4 113-311)
T5 construct: bait, Gal4 DBD fusion; also called PN20559
T5 sequence: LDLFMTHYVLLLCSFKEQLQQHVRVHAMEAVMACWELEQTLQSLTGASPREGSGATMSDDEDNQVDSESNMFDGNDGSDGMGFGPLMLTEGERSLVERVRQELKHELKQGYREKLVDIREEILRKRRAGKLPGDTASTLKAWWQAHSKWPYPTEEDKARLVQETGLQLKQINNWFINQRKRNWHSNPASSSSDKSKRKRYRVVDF

T6: OsPN23485 aa 90-243 (Oryza sativa, UniProt Q7XPL2 165-318)
T6 construct: prey, AD fusion; also called Novel Protein PN23485, Similar to Hordeum vulgare Coproporphyrinogen III Oxidase, chloroplast precursor
T6 sequence: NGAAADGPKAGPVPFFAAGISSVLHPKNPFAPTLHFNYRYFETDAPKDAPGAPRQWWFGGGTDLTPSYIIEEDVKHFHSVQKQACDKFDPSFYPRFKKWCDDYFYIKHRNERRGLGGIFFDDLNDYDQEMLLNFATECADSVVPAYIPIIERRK

T7: OsEXPB2 aa 80-207 (Oryza sativa, UniProt O24230 80-207)
T7 construct: prey, AD fusion; also called PN19902; Beta-Expansin EXPB2
T7 sequence: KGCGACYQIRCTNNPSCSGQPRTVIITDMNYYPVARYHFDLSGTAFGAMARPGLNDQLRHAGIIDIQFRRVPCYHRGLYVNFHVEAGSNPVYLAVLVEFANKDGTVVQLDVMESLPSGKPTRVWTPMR

T8: Os003181-3684 aa 58-140 (Oryza sativa)
T8 construct: bait, Gal4 DBD fusion; also called PN21036; Hypothetical Protein 003181-3684
T8 chain: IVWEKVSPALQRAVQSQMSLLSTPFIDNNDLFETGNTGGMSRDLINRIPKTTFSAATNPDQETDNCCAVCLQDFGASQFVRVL

B1: OsPN23829 aa 3-220 (other)
chain: LSVEKTSSGREYKVKDLSQADFGRLEIELAEVEMPGLMACRAEFGPSQPFKGARISGSLHMTIQTAVLIETLTALGAEVRWCSCNIFSTQDHAAAAIARDSAAVFAWKGETLEEYWWCTERCLDWGVGGGPDLIVDDGGDATLLIHEGVKAEEEFEKSGKVPDPESTDNAEFKIVLTIIRDGLKSDPSKYRKMKERLVGVSEETTTGVKRLYQMQETG
notes: prey, AD fusion
B2: OsPN23226 aa 345-432 (other)
chain: WFMSNQETSFVTIGQRVLANPLRVRFHYGHPDIFDRLFHLTRGGVSKASKIINLSEDIFAGFNSTLREGNVTHHEYMQVGKGRDVGLN
notes: prey, AD fusion; also called Novel Protein PN23226, Callose synthase
B3: OsDAD1 aa 30-115 (other)
chain: DLYVVFAVATALIQVVYMGIVGSFPFNSFLSGVLSCIGTAVLAVCLRIQVNKDNKEFKDLPPERAFADFVLCNLVLHLVIMNFLG
notes: bait, Gal4 DBD fusion; also called PN20251; O. sativa Defender Against Apoptotic Death 1
B4: OsPN29971 aa 1-108 (other)
chain: EKSDVQSTLEMELDRRSNDWSVKLAEFQSEEQRLRERVRELAEQNVSFQREVTLLESNRIDVSNKITSLELQNKQLNDELQKVKKEHDTLLKSSVELNDNLTKTAEGY
notes: prey, AD fusion; also called Novel protein PN29971, fragment, similar to A. thaliana centromere protein
B5: OsPN23251 aa 112-291 (other)
chain: DMNLITDQDFTELVQKVPDDCLFTIVSDSCHSGGLLDKTKEQIGHSTKQNQAQQIKREERSDSGTGGFRSFLKETLKETVRDAFESRGVHIPHQSSRRNDDEDEEPHMGSSSHGGDRIKNRSLPLSTLIEMLKEKTGKDDIDVGSIRMTLFSLFGDDASPKIKKFMKVMLTKLQEGQHGG
notes: prey, AD fusion; also called Novel Protein PN23251
B6: Os006819-2510 aa 1-273 (other)
chain: MAFRLSNSLLGILNAVTFLLSVPVLGGGIWLATRADGTECERYFSAPVIAFGVFLLLVSLAGLVGACCRVNCLLWFYLVAMFVLIVVLFCFTVFAFVVTNKGAGEAVSGRGYKEYRLGDYSNWLQKRMENSKNWNRIRSCLQDSKVCKKLQDKNWDRTQFFKADLSPLESGCCKPPSSCNFLYVSGTNWTKVPTNSSDPDCNTWVDDGTQLCYNCQSCKAGAVATLKRDWKRVAVVCIVFLVFIVIVYSLGCCAFRNNRRDNRGAYRGAAWKG
notes: bait, Gal4 DBD fusion; also called PN20462
B7: OsPN23878 aa 685-888 (other)
chain: IYEQGLVLQQLKCCGVLEVVRISRSGYPTRMTHQKFARRYGFLLLEDVASQDPLSVSVAILHQFNILPEMYQVGYTKLFFRTGQIGKLEDTRNRTLHGILRVQSCFRGHQARRHARERIRGVLALQSFIRGENARKMYSSLARKHRAAIILQRNLKCWLARRYFVNIRKASVVIQSGIRGCLVRRCAGNVDLLNVLREFESKKE
notes: prey, AD fusion; also called Oryza sativa Putative Myosin (AAL31066.1)
B8: OsDAD1 aa 1-115 (other)
chain: MPRATSDAKLLIQSLGKAYAATPTNLKIIDLYVVFAVATALIQVVYMGIVGSFPFNSFLSGVLSCIGTAVLAVCLRIQVNKDNKEFKDLPPERAFADFVLCNLVLHLVIMNFLG
notes: bait, Gal4 DBD fusion; also called PN20251
B9: Os018989-4003 aa 69-294 (other)
chain: GGGGNAAEREEGGANRNGKKEKTGAQRITGWGLREFSKIVSKKVEAKGRTTYNEVADEIFAELKSITQNGLEFDEKNIRRRVYDAFNVLIAIRVIAKDKKEIKWMGLTNYRYEKIQKLEEVHKELITRIKNKKKLLQEIEKQFDDLQNITLRNQASQRPAESVNGILLPFLLIKTSRKARVEIEISEDSKFARFDFNGAPFTMHDDVSILEAIRRNKGRAGLSIHP
notes: prey, AD fusion; also called PN21044
B10: OsHOS59 aa 1-100 (other)
chain: LDLFMTHYVLLLCSFKEQLQQHVRVHAMEAVMACWELEQTLQSLTGASPREGSGATMSDDEDNQVDSESNMFDGNDGSDGMGFGPLMLTEGERSLVERVR
notes: bait, Gal4 DBD fusion; also called PN20559; O. sativa Homeobox Protein HOS59, Fragment
B11: OsAAD27557 aa 7-142 (other)
chain: DFQPRTFSIKLWPPSESTRLMLVERMTKNLSTESIFSRKYGLLGKEEAHDNAKRIEEVCFASADEHFKEEPDGDGSSAVQLYAKETSKLMLEVLKRGPRTTVEPEVPVADTPLEPADSVFDISGGKRAFIEADEAK
notes: prey, AD fusion; also called PN22896
B12: Os006819-2510 aa 1-150 (other)
chain: MAFRLSNSLLGILNAVTFLLSVPVLGGGIWLATRADGTECERYFSAPVIAFGVFLLLVSLAGLVGACCRVNCLLWFYLVAMFVLIVVLFCFTVFAFVVTNKGAGEAVSGRGYKEYRLGDYSNWLQKRMENSKNWNRIRSCLQDSKVCKKL
notes: bait, Gal4 DBD fusion; also called PN20462; Hypothetical Protein 006819-2510, Similar to Senescence-Related Protein 5 from Hemerocallis Hybrid Cultivar
B13: OsAAD27557 aa 1-149 (other)
chain: MDSTKQDFQPRTFSIKLWPPSESTRLMLVERMTKNLSTESIFSRKYGLLGKEEAHDNAKRIEEVCFASADEHFKEEPDGDGSSAVQLYAKETSKLMLEVLKRGPRTTVEPEVPVADTPLEPADSVFDISGGKRAFIEADEAKELLSPLI
notes: as for B11
B14: OsGF14-c aa 1-150 (other)
chain: MSREENVYMAKLAEQAERYEEMVEYMEKVAKTVDVEELTVEERNLLSVAYKNVIGARRASWRIVSSIEQKEEGRGNEEHVTLIKEYRGKIEAELSKICDGILKLLDSHLVPSSTAAESKVFYLKMKGDYHRYLAEFKTGAERKEAAESTM
notes: bait, Gal4 DBD fusion; also called PN12464; O. sativa 14-3-3 Protein Homolog GF14-c

Assays:
[1] = biological target: T1, Os005792-3529 aa 1-55; assay: Y2H; output trait library
Summary of the method: (§1)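 Myriad Genetics Inc. (Salt Lake City, Utah) supplied the automated, high-throughput yeast two-hybrid assay used to detect protein-protein interactions. A bait clone encoding a defined amino-acid fragment of a rice protein was screened against a rice prey library, either the input trait or the output trait library. To identify the interacting proteins, prey clones were retrieved and their encoding sequences were compared against databases by BLAST.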

[2] = biological target: B6; assay: Y2H; output trait library
Summary of the method: as §1

[3] = biological target: T2, OsPN23053 aa 1-180; assay: Y2H; input trait library
Summary of the method: as §1

[4] = biological target: T3, OsEXPB2 aa 80-218; assay: Y2H; input trait library
Summary of the method: as §1

[5] = biological target: T4, OsMADS15 aa 100-235; assay: Y2H; input trait library
Summary of the method: as §1

[6] = biological target: T5, OsHOS59 aa 1-206; assay: Y2H; input trait library
Summary of the method: as §1

[7] = biological target: T6, OsPN23485 aa 90-243; assay: Y2H; output trait library
Summary of the method: as §1

[8] = biological target: B12; assay: Y2H; output trait library
Summary of the method: as §1

[9] = biological target: T7, OsEXPB2 aa 80-207; assay: Y2H; input trait library
Summary of the method: as §1

[10] = biological target: T9, OsE2F2 (367) aa 1-368 (Oryza sativa); assay: Y2H; input trait library
T9 construct: bait, Gal4 DBD fusion; also called PN21003; E2F2 Homolog, Alt
T9 sequence (chain, as listed by the source limits assumed): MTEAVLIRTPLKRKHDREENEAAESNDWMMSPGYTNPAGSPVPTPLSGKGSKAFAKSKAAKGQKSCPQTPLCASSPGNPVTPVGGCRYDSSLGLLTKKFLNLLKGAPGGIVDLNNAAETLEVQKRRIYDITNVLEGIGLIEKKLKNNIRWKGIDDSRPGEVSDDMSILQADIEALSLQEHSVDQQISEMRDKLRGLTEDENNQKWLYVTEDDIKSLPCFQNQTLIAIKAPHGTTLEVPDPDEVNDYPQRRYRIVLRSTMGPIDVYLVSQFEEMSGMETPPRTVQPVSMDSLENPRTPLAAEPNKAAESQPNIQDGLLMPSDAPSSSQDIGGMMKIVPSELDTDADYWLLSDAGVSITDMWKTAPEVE
Summary of the method: as §1

[11] = biological target: T10, Os000221-3976 aa 123-238 (Oryza sativa, UniProt Q07078 342-457); assay: Y2H; input trait library
T10 construct: prey, AD fusion; also called PN23169
T10 sequence (Q07078 342-457): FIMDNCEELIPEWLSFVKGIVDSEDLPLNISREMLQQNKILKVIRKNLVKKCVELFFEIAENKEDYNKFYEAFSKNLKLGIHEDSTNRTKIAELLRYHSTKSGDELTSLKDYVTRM
Summary of the method: as §1

[12] = biological target: B10; assay: Y2H; input trait library
Summary of the method: as §1

[13] = biological target: T11, OsAAK01712 aa 90-221 (Oryza sativa, UniProt Q7Y0Y8 90-221); assay: Y2H; output trait library
T11 construct: prey, AD fusion; also called PN24059; O. sativa Histone Deacetylase HD1
T11 sequence (Q7Y0Y8 90-221): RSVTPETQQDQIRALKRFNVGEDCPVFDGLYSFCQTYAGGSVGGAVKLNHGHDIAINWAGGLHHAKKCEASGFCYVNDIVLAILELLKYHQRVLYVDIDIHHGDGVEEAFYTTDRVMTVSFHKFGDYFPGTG
Summary of the method: as §1

[14] = biological target: T8, Os003181-3684 aa 58-140; assay: Y2H; output trait library
Summary of the method: as §1

[15] = biological target: T12, OsRBCL aa 287-462 (Oryza sativa, UniProt P0C510 287-462); assay: Y2H; input trait library
T12 construct: prey, AD fusion; also called PN23426; O. sativa Chloroplast Ribulose Bisphosphate Carboxylase, Large Chain
T12 sequence (P0C510 287-462): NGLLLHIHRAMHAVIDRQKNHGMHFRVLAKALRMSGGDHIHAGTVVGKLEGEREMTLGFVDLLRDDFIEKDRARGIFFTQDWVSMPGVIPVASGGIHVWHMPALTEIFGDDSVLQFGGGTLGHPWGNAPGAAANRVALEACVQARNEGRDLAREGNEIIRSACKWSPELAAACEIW
Summary of the method: as §1

Question: Does B1 bind [1]?
Answer: binds

Question: Does B2 bind [2]?
Answer: binds

Question: Does B3 bind [3]?
Answer: binds

Question: Does B3 bind [4]?
Answer: binds

Question: Does B4 bind [5]?
Answer: binds

Question: Does B5 bind [6]?
Answer: binds

Question: Does B6 bind [7]?
Answer: binds

Question: Does B7 bind [8]?
Answer: binds

Question: Does B8 bind [9]?
Answer: binds

Question: Does B9 bind [10]?
Answer: binds

Question: Does B10 bind [11]?
Answer: binds

Question: Does B11 bind [12]?
Answer: binds

Question: Does B12 bind [13]?
Answer: binds

Question: Does B13 bind [14]?
Answer: binds

Question: Does B14 bind [15]?
Answer: binds
